94 variants from the supplement of paper PMC10567573 can be followed below.

B1: RSPH3 (parent)
chain: MTVKPAKAASLARNLAKRRRTYLG
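Note: lentivirally expressed fusions sorted by FACS into six bins by GFP to DsRed ratio, PSI derived from sequencing read proportions per bin multiplied by bin number.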

Variants of B1 are the subject of the data set. As to the kind of experiment: protein stability index of a GFP-peptide fusion (GPS, HEK-293T) (PSI 1-6); higher = more stable. Conditions: c terminus: a fixed tail appended.
As to MTVKPAKAQSLARNLAKRRRTYLG, the protein stability index turned out to be 2.77.

Turning to MTVKPAKASSLARNLAKRRRTYLG, the protein stability index was found to be 2.95.

For MTVKPAKACSLARNLAKRRRTYLG, the protein stability index was 2.73.

Regarding MTVKPAKAWSLARNLAKRRRTYLG, the protein stability index is 1.9.

For the variant MTVKPAKAKSLARNLAKRRRTYLG, the protein stability index turned out to be 2.64.

MTVKPAKADSLARNLAKRRRTYLG: the protein stability index is 2.9.

Consider MTVKPAKAFSLARNLAKRRRTYLG, for which the protein stability index was determined as 2.62.

Take MTVKPAKAMSLARNLAKRRRTYLG: the protein stability index was determined as 2.2.

With MTVKPAKAISLARNLAKRRRTYLG, the protein stability index turned out to be 1.79.

For MTVKPAKAESLARNLAKRRRTYLG, the protein stability index was 3.65.

Consider MTVKPAKAYSLARNLAKRRRTYLG, for which the protein stability index was found to be 3.04.

Consider MTVKPAKARSLARNLAKRRRTYLG, for which the protein stability index stood at 2.42.

Consider MTVKPAKATSLARNLAKRRRTYLG, for which the protein stability index was found to be 3.11.

As for MTVKPAKAPSLARNLAKRRRTYLG, the protein stability index is 3.03.

For the variant MTVKPAKAVSLARNLAKRRRTYLG, the protein stability index came out at 3.28.

For the variant MTVKPAKANSLARNLAKRRRTYLG, the protein stability index worked out at 3.58.

For MTVKPAKAHSLARNLAKRRRTYLG, the protein stability index is 3.37.

As for MTVKPAKAGSLARNLAKRRRTYLG, the protein stability index turned out to be 2.71.

Turning to MTVKPAKALSLARNLAKRRRTYLG, the protein stability index amounted to 1.79.

For the variant MTVKPAKQASLARNLAKRRRTYLG, the protein stability index is 2.5.

MTVKPAKIASLARNLAKRRRTYLG: the protein stability index amounted to 2.17.

For the variant MTVKPAKHASLARNLAKRRRTYLG, the protein stability index is 2.68.

Turning to MTVKPAKPASLARNLAKRRRTYLG, the protein stability index is 2.04.

On to MTVKPAKLASLARNLAKRRRTYLG, for which the protein stability index turned out to be 2.65.

As to MTVKPAKGASLARNLAKRRRTYLG, the protein stability index came out at 2.4.

In the case of MTVKPAKSASLARNLAKRRRTYLG, the protein stability index amounted to 2.55.

As for MTVKPAKKASLARNLAKRRRTYLG, the protein stability index worked out at 3.23.

Regarding MTVKPAKWASLARNLAKRRRTYLG, the protein stability index stood at 2.46.

As for MTVKPAKMASLARNLAKRRRTYLG, the protein stability index came to 2.62.

In the case of MTVKPAKVASLARNLAKRRRTYLG, the protein stability index was 2.57.

MTVKPAKYASLARNLAKRRRTYLG: the protein stability index is 2.04.

Regarding MTVKPAKRASLARNLAKRRRTYLG, the protein stability index stood at 2.3.

For the variant MTVKPAKTASLARNLAKRRRTYLG, the protein stability index was 2.87.

As for MTVKPAKNASLARNLAKRRRTYLG, the protein stability index was found to be 2.58.

Regarding MTVKPAKAASLTRNLAKRRRTYLG, the protein stability index turned out to be 3.28.

As to MTVKPAKAASLRRNLAKRRRTYLG, the protein stability index was found to be 3.67.

In the case of MTVKPAKAASLWRNLAKRRRTYLG, the protein stability index stood at 2.09.

As to MTVKPAKAASLNRNLAKRRRTYLG, the protein stability index worked out at 2.49.

In the case of MTVKPAKAASLDRNLAKRRRTYLG, the protein stability index was determined as 3.94.

With MTVKPAKAASLQRNLAKRRRTYLG, the protein stability index turned out to be 3.11.

Regarding MTVKPAKAASLSRNLAKRRRTYLG, the protein stability index amounted to 2.39.

Regarding MTVKPAKAASLYRNLAKRRRTYLG, the protein stability index amounted to 2.19.

On to MTVKPAKAASLGRNLAKRRRTYLG, for which the protein stability index was determined as 3.21.

Turning to MTVKPAKAASLHRNLAKRRRTYLG, the protein stability index turned out to be 2.17.

For the variant MTVKPAKAASLMRNLAKRRRTYLG, the protein stability index came out at 2.22.

Regarding MTVKPAKAASLPRNLAKRRRTYLG, the protein stability index came to 2.87.

For the variant MTVKPAKAASLCRNLAKRRRTYLG, the protein stability index was 2.87.

On to MTVKPAKAASLLRNLAKRRRTYLG, for which the protein stability index stood at 1.34.

Consider MTVKPAKAASLKRNLAKRRRTYLG, for which the protein stability index came out at 3.22.

As for MTVKPAKAASLVRNLAKRRRTYLG, the protein stability index amounted to 2.16.

On to MTVKPAKAASLFRNLAKRRRTYLG, for which the protein stability index was determined as 1.94.

As to MTVKPAKAASLERNLAKRRRTYLG, the protein stability index stood at 2.83.

Consider MTVKPAKAASLIRNLAKRRRTYLG, for which the protein stability index amounted to 2.69.

For the variant MTVKPAKAASLAANLAKRRRTYLG, the protein stability index was 3.26.

Take MTVKPAKAASLADNLAKRRRTYLG: the protein stability index stood at 2.85.

MTVKPAKAASLACNLAKRRRTYLG: the protein stability index came out at 3.12.

For MTVKPAKAASLAENLAKRRRTYLG, the protein stability index was 3.08.

For MTVKPAKAADLARNLAKRRRTYLG, the protein stability index is 2.96.

As to MTVKPAKAAFLARNLAKRRRTYLG, the protein stability index was found to be 2.35.

Take MTVKPAKAAVLARNLAKRRRTYLG: the protein stability index amounted to 3.34.

Consider MTVKPAKAAPLARNLAKRRRTYLG, for which the protein stability index amounted to 3.1.

As to MTVKPAKAAKLARNLAKRRRTYLG, the protein stability index worked out at 2.1.

Turning to MTVKPAKAANLARNLAKRRRTYLG, the protein stability index turned out to be 2.99.

For MTVKPAKAAWLARNLAKRRRTYLG, the protein stability index worked out at 2.47.

For the variant MTVKPAKAAMLARNLAKRRRTYLG, the protein stability index came out at 2.02.

On to MTVKPAKAAILARNLAKRRRTYLG, for which the protein stability index came out at 2.55.

Turning to MTVKPAKAAHLARNLAKRRRTYLG, the protein stability index is 3.28.

With MTVKPAKAAALARNLAKRRRTYLG, the protein stability index came to 2.86.

Consider MTVKPAKAAELARNLAKRRRTYLG, for which the protein stability index was 2.74.

As for MTVKPAKAAGLARNLAKRRRTYLG, the protein stability index was 2.88.

As for MTVKPAKAALLARNLAKRRRTYLG, the protein stability index came to 3.35.

For MTVKPAKAARLARNLAKRRRTYLG, the protein stability index stood at 3.92.

MTVKPAKAATLARNLAKRRRTYLG: the protein stability index came out at 3.41.

Turning to MTVKPAKAAYLARNLAKRRRTYLG, the protein stability index amounted to 2.03.

In the case of MTVKPAKAACLARNLAKRRRTYLG, the protein stability index worked out at 2.01.

Consider MTVKPAKAASDARNLAKRRRTYLG, for which the protein stability index is 3.46.

Consider MTVKPAKAASRARNLAKRRRTYLG, for which the protein stability index is 2.18.

In the case of MTVKPAKAASQARNLAKRRRTYLG, the protein stability index was determined as 3.79.

In the case of MTVKPAKAASTARNLAKRRRTYLG, the protein stability index amounted to 3.36.

As to MTVKPAKAASGARNLAKRRRTYLG, the protein stability index came to 3.

For MTVKPAKAASMARNLAKRRRTYLG, the protein stability index worked out at 3.16.

For MTVKPAKAASSARNLAKRRRTYLG, the protein stability index amounted to 3.29.

Take MTVKPAKAASEARNLAKRRRTYLG: the protein stability index was determined as 4.03.

As for MTVKPAKAASYARNLAKRRRTYLG, the protein stability index was determined as 3.01.

As to MTVKPAKAASWARNLAKRRRTYLG, the protein stability index was determined as 1.83.

For MTVKPAKAASAARNLAKRRRTYLG, the protein stability index is 4.

Consider MTVKPAKAASIARNLAKRRRTYLG, for which the protein stability index came out at 2.61.

Take MTVKPAKAASHARNLAKRRRTYLG: the protein stability index stood at 3.66.

For the variant MTVKPAKAASNARNLAKRRRTYLG, the protein stability index was determined as 3.99.

MTVKPAKAASCARNLAKRRRTYLG: the protein stability index amounted to 2.54.

For MTVKPAKAASKARNLAKRRRTYLG, the protein stability index came to 3.15.

For the variant MTVKPAKAASPARNLAKRRRTYLG, the protein stability index worked out at 3.68.

Regarding MTVKPAKAASFARNLAKRRRTYLG, the protein stability index was found to be 2.19.

As for MTVKPAKAASVARNLAKRRRTYLG, the protein stability index came to 3.3.
